Measured values taken from patent US8138323.
Blank lines part the entries; values can stand above or below the substance they belong to.

Legend:
[1] = biological target: TNF Binding Protein I (human) (UniProt P19438); assay: solid phase assay, 125I-TBP-I bound to TNF-α with 10 µg/ml IFN-gamma as competitor
[2] = biological target: Tumor Necrosis Factor (TNF) Binding Protein II (human) (UniProt P20333); assay: solid phase assay, 125I-TBP-II bound to TNF-α with 10 µg/ml IFN-gamma as competitor
[3] = biological target: TNF Binding Protein I (human) (UniProt P19438); assay: solid phase assay, 125I-TBP-I bound to TNF-α with 10 µg/ml IL-1α as competitor
[4] = biological target: Tumor Necrosis Factor (TNF) Binding Protein II (human) (UniProt P20333); assay: solid phase assay, 125I-TBP-II bound to TNF-α with 10 µg/ml IL-1α as competitor
[5] = biological target: TNF Binding Protein I (human) (UniProt P19438); assay: solid phase assay, 125I-TBP-I bound to TNF-α with 10 µg/ml IL-6 as competitor
[6] = biological target: Tumor Necrosis Factor (TNF) Binding Protein II (human) (UniProt P20333); assay: solid phase assay, 125I-TBP-II bound to TNF-α with 10 µg/ml IL-6 as competitor

bound CPM [1]: 28000 CPM
Substance: IFN-gamma (from UniProt P01579 24-166) (ligand)
bound CPM [2]: 18500 CPM

bound CPM [3]: 28100 CPM
Substance: IL-1α (from UniProt P01583 113-271) (ligand)
bound CPM [4]: 17800 CPM

bound CPM [5]: 27000 CPM
Substance: IL-6 (from UniProt P05231 30-212) (ligand)
bound CPM [6]: 18600 CPM
